According to patent US8247376B2, “NGAL for reduction and amelioration of ischemic and nephrotoxic injuries” (The Trustees of Columbia University, priority 2004, dated 2012):
“Also recorded” adds a separate entry of the source.

Tests used:
[1] = system: mouse model of ATN or ischemia/reperfusion injury; test: Kidney histology in mouse ATN model; type: in vivo, mice; details: NGAL-treated ATN kidneys vs ATN
Description: (§1) Male C57BL/6 mice (20-25 gr; Charles River) were anesthetized with intraperitoneal pentobarbital (50 mg/kg) and placed on a heating pad under a warming light to maintain 37© core body temperature. Kidneys were exposed through an abdominal section and the right kidney was either removed or its vascular pedicle and ureter ligated. The vascular pedicle of the left kidney or both kidneys was clamped by a microaneurysm clip (Kent Scientific) for 30 minutes after right nephrectomy. This period of ischemia generated reproducible renal injury but minimized mortality. During the procedure, PBS (0.5 ml) was used to dampen the peritoneum. The animal was closed with 5-0 Nylon. Saline, NGAL, retinol-loaded retinol binding protein (RBP), enterochelin, or desferroxamine mesylate (DFO) were injected into the peritoneum or subcutaneously 15 min. prior to ischemia or 1-2 hr after reperfusion.
After 6 or 24 hr of reperfusion, heparinized plasma, urine and kidney samples were obtained to measure NGAL (polyclonal 1:500), Heme oxygenase-1 (Stressgen, 1:2000), E-cadherin (BD Transduction Labs, 1:2000), N-cadherin (BD Transduction Labs, 1:3000) and GAPDH (Chemicon International, 1:3000) using immunoblots. Plasma was also used for creatinine and blood urea nitrogen colorimetric assays. Sagittal sections of the kidney were fixed in 4% formalin, or were snap frozen for mRNA and protein analysis. […]

[2] = system: mouse model of ATN or ischemia/reperfusion injury; test: Mouse model of ATN (30 min clamp, contralateral nephrectomy): plasma creatinine; type: in vivo, mice
Description: as §1
(§2) After 6 or 24 hr of reperfusion, heparinized plasma, urine and kidney samples were obtained to measure NGAL (polyclonal 1:500), Heme oxygenase-1 (Stressgen, 1:2000), E-cadherin (BD Transduction Labs, 1:2000), N-cadherin (BD Transduction Labs, 1:3000) and GAPDH (Chemicon International, 1:3000) using immunoblots. Plasma was also used for creatinine and blood urea nitrogen colorimetric assays. Sagittal sections of the kidney were fixed in 4% formalin, or were snap frozen for mRNA and protein analysis. Paraffin-embedded sections (5 μm) were stained with hematoxylin-eosin or by an in situ kit (Fluorescein-TUNEL, Roche) for apoptotic nuclei or for total nuclei (Toprol, Molecular Probes). For cell proliferation analysis, BrdU was injected into the peritoneum 1 hour before sacrifice, and cryostat sections were stained with anti-BrdU (Roche) according to the manufacturer.

cortical tubules [3] = test: BrdU uptake: percent of cortical tubules with BrdU-positive cell; type: in vivo, mice; details: NGAL pretreated, 24 hours after insult; ischemic 1.9%, sham 3.7%
Description: as §2

tubule epithelial cells [4] = test: PCNA proliferation assay on kidney sections; type: in vivo, mice; details: 24 h reflow
Description: (§3) Purified endotoxin-free NGAL was administered either intravenously into mice via tail vein injections, subcutaneously, or intraperitoneally. In preliminary studies, animals were treated with three different concentrations of NGAL (50, 100, or 250 μg of a 250 μg/100 solution), subjected to 30 minutes of bilateral renal artery clamping one hour later, and examined after 24 hours of reflow. […] All subsequent studies as reported here were carried out using the 250 μg dose of NGAL. Comparisons were made between five different animal groups: non-ischemic controls (n=8), ischemic controls pre-treated with saline alone (n=8), NGAL pre-treated one hour prior to renal artery clamping (n=6), NGAL treated during renal artery clamping (n=6), and NGAL treated one hour post renal artery clamping (n=6).
For detection of proliferating cells, sections were incubated with a monoclonal antibody to Proliferating Cell Nuclear Antigen (PCNA, 1:500 dilution, Upstate Biotechnology), and detection accomplished by immunoperoxidase staining as recommended by the manufacturer (ImmunoCruz Staining System, Santa Cruz Biotechnology). Slides were examined in a blinded fashion, and proliferation was quantified by counting the number of PCNA positive cells per 100 cells counted in an average of five high power (40×) fields in each section.

heme oxygenase-1 (HO-1) = test: Heme oxygenase-1 immunoblot of kidney; type: in vivo, mice
Description: as §2

endogenous NGAL = test: Endogenous NGAL expression after exogenous NGAL (real time PCR, immunoblot); type: in vivo, mice; set-up: reduction of the increase in endogenous NGAL RNA / reduction of endogenous NGAL protein in the kidney: dose or concentration left out as unconfirmed
Description: as §2
Total RNA was extracted from mouse kidneys using RNeasy mini kit (Qiagen) with on-column DNase digestion according to the manufacturer's instructions. The cDNA template was synthesized using Omniscript Reverse Transcriptase and oligo-dT primer (Qiagen). The PCR reaction was carried out using iQ SYBR green super mix and MyiQ single-color real-time PCR detection system (Biorad) with incubation times of 2 min at 95° C., followed by 40 cycles of 95° C./30 s and 60° C./30 s. Specificity of the amplification was checked by melting curve analysis and by agarose gel electrophoresis. Primer sequences for mouse NGAL mRNA (Genbank NM_008491) were […] (forward primer, positions 93-112) and […] (reverse, 576-557). Sequences for mouse β-actin mRNA (Genbank X03672) were […] (forward, 415-434) and […] (reverse, 696-677). Each plate included a dilution series of standard sample, which was used to determine mRNA quantities. The NGAL mRNA content was normalized by β-actin mRNA.

[5] = Cofactor-dependent ^55Fe binding to NGAL (10 kDa filter retention)
Description: The urine fraction was obtained by passing fresh urine sequentially through 10 kDa and 3 kDa membranes (YM-10 and YM-3, Amicon). The mixture was then washed three times on 10 kDa membrane (YM-10, Amicon). Iron-free enterochelin-loaded NGAL (rather than NGAL without siderophore) served as a positive control for iron capture. Ferric citrate (1 mM) or iron-loaded enterochelin (Sid:Fe, 50 μM) were used as competitors of ^55Fe binding.

tubule epithelial cells [6] = test: TUNEL apoptosis assay on kidney sections (nuclei per 100 cells); type: in vivo, mice; details: 24 h reflow
Description: as §3
For the TUNEL assay to detect apoptotic nuclei, we utilized the ApoAlert DNA Fragmentation Assay Kit (Clontech). Paraffin sections were deparaffinized through zylene and descending grades of ethanol, fixed with 4% formaldehyde/PBS for 30 min at 4° C., permeabilized with proteinase K at room temperature for 15 min and 0.2% triton X-100/PBS for 15 min at 4° C., and incubated with a mixture of nucleotides and TdT enzyme for 60 min at 37° C. The reaction was terminated with 2×SSC, the sections washed with PBS, and mounted with Crystal/mount (Biomeda, Foster City, Calif.). TUNEL-positive apoptotic nuclei were detected by visualization with a fluorescent microscope. […] Merely TUNEL positive cells, in the absence of morphologic criteria, were not considered apoptotic. Slides were examined in a blinded fashion, and apoptosis was quantified by counting the number of TUNEL positive nuclei per 100 cells counted in an average of five high power (40×) fields in each section.

cortical tubules [7] = test: Fluorescein-TUNEL: percentage of cortical tubules with TUNEL-positive cell; type: in vivo, mice; details: 24 h after reperfusion, SEM; ischemic 11.5%, sham 0.5%
Description: as §2

B1: NGAL: Purified endotoxin-free recombinant NGAL expressed as GST fusion protein in bacteria, thrombin cleaved (protein, UniProt P80188 21-198, looked up)
Neutrophil …: QDSTSDLIPAPPLSKVPLQQNFQDNQFQGKWYVVGLAGNAILREDKDPQKMYATIYELKEDKSYNVTSVLFRKKKCDYWIRTFVPGCQPGEFTLGNIKSYPGLTSYLVRVVSTNYNQHAMVFFKKVSQNREYFKITLYGRTKELTSELKENFIRFSKSLGLPENHIVFPVPIDQCIDG
With B1 the “kidney histology (tubule morphology)” value [1] was “normal epithelial morphology was preserved in the S1 and S2 segments of the proximal tubule; also recorded: preservation of cortical tubules, but residual cortical-medullary casts”, the “plasma creatinine 24 hours after reperfusion” value (shortened to “plasma creatinine 24 hours”) ([2]; 1 μg NGAL (not protective)) was 3.09 ± 0.11 mg/dL and the “plasma creatinine 24 hours” value ([2]; 100 μg NGAL 15 minutes before clamping, untreated 3.16±0.17) was 1.18 ± 0.18 mg/dL. The plasma creatinine ([2]; NGAL 2 hours after ischemia (no protective effect)) was 3.12 ± 0.35 mg/dL, the “plasma creatinine 24 hours” value ([2]; NGAL one hour after reperfusion) was 1.60 ± 0.28 mg/dL and the “protection against ATN (creatinine, FIG. 17A)” value ([2]; administered later than one hour after ischemia) was “ineffective”. For the same molecule, the “percent of cortical tubules with at least one BrDU-positive tubular cell” value (cortical tubules [3]) was 3.9%±0.5, the “PCNA-positive tubule epithelial cells per hundred cells” value (tubule epithelial cells [4]; NGAL during ischemia) was 14.9%±1.2 and the “PCNA-positive tubule epithelial cells per hundred cells” value (tubule epithelial cells [4]; NGAL one hour after ischemia) was 14.5%±1.2. For the same molecule, the “PCNA-positive tubule epithelial cells per hundred cells” value (tubule epithelial cells [4]; NGAL one hour before ischemia, saline 4.4%±1.2) was 19.1%±2.1, the “upregulation of HO-1 over ATN alone” value (heme oxygenase-1 (HO-1); ATN-injured mice, 10-100 μg NGAL, 24 hours after reperfusion) was 5-10 fold and the “expression of HO-1 after NGAL injection” value (heme oxygenase-1 (HO-1); healthy mice (Sham), increasing doses of NGAL) was “much less than the NGAL-treated ATN-injured kidneys”. The “reduction of the increase in endogenous NGAL RNA” value (endogenous NGAL; 24 hours of reperfusion, real time PCR) was 72%±16, the “endogenous NGAL protein in the kidney” value (endogenous NGAL; NGAL-treated ischemia, ischemia 73±7) was 29 ± 7 µg/g and the “reduction of endogenous NGAL protein in the kidney” value (endogenous NGAL; immunoblot) was 2.5 fold. The “NGAL molecules that bound iron” value ([5]; 30 μl of mouse urine) was “approximately 20%”, the “retention of ^55Fe” value ([5]; with mouse urine fraction (<3,000 Da), washed on 10 kDa filter) was “permitted the retention of ^55Fe” and the “apoptotic tubule epithelial cells (TUNEL-positive nuclei per hundred cells)” value (tubule epithelial cells [6]; NGAL during ischemia) was 7.6%±0.8. The “apoptotic tubule epithelial cells (TUNEL-positive nuclei per hundred cells)” value (tubule epithelial cells [6]; NGAL one hour after ischemia) was 8.5%±0.8, the “apoptotic tubule epithelial cells (TUNEL-positive nuclei per hundred cells)” value (tubule epithelial cells [6]; NGAL one hour before ischemia, saline 12.6%±2.2) was 6.7%±1.6 and the “percentage of cortical tubules with at least one TUNEL-positive tubular cell” value (cortical tubules [7]) was 2.9%±0.9.
